Sequences and labels used below:
T1: human Ang-2443 (human, UniProt O15123 19-496)
T1 construct: Splice variant missing amino acids 96-148; supernatant of transfected 293F cells
T1 sequence: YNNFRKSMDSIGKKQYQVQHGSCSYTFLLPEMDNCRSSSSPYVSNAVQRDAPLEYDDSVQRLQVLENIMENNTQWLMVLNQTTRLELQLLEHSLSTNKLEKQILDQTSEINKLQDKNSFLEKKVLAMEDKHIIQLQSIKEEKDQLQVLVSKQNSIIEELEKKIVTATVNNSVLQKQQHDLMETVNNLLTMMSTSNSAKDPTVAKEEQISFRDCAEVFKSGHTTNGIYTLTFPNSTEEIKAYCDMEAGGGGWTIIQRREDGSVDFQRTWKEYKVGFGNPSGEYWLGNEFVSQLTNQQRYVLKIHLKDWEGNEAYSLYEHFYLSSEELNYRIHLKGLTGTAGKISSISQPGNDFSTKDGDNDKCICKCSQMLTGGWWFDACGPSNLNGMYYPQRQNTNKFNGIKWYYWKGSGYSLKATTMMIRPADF

T2: human Ang-2 V345M (human, UniProt O15123 19-496)
T2 sequence: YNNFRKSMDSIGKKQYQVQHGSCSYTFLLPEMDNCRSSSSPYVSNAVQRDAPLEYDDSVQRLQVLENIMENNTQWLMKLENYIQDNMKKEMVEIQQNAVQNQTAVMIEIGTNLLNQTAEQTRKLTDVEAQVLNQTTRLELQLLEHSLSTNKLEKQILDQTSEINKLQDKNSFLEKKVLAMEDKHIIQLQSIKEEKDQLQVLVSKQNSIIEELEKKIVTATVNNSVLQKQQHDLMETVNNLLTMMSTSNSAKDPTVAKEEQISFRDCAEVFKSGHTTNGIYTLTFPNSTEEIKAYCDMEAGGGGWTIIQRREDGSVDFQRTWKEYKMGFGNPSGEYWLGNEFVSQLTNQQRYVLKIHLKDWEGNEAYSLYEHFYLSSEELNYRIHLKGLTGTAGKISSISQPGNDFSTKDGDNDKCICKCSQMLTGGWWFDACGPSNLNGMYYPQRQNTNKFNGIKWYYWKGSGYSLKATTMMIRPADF

T3: human Ang-2 H375Q (human, UniProt O15123 19-496)
T3 sequence: T2 sequence with M326V, H356Q

T4: Human Ang-1/2 BsmI chimeric molecule (human)
T4 chain: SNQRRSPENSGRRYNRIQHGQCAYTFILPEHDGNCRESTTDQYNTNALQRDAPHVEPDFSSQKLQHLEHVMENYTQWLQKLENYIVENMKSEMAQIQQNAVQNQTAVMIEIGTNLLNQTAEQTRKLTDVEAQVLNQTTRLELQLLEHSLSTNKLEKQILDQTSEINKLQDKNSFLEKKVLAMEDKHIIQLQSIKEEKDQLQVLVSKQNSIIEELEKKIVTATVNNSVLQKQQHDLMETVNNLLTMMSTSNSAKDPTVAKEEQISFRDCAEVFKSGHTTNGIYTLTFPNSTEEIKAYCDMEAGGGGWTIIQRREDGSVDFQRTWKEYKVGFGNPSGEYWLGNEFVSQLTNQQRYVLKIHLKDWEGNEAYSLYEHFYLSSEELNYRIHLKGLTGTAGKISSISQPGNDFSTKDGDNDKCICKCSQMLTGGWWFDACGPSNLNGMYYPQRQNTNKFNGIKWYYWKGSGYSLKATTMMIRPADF

T5: human Angiopoietin-2 (human, UniProt O15123 19-496)
T5 construct: Mostly bought recombinant protein (R&D Systems 623-AM/CF, 623-AN; biotinylated BT623) or supernatant of transfected 293F cells; also called Ang-2; rhAng-2
T5 sequence: T2 sequence with M326V

T6: mouse Angiopoietin-2 (mouse, UniProt O35608 19-496)
T6 construct: Used as conditioned medium of transfectants; also called mAng-2; mouse Ang-2
T6 sequence: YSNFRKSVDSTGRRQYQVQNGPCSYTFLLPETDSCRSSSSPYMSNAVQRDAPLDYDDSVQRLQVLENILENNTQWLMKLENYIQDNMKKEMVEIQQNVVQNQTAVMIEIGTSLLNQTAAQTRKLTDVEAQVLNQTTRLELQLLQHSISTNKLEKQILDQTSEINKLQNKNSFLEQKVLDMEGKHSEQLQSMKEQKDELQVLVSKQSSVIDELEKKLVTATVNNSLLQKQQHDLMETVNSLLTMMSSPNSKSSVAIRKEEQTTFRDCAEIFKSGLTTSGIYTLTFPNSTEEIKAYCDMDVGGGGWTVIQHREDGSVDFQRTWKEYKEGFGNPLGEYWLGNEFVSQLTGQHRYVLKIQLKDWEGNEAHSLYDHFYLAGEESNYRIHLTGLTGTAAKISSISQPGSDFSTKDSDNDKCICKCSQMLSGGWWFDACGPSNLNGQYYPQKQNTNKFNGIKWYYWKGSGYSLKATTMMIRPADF

B1: mAb 6.3.1 (antibody, V domains shown)
VH: QVQLVQSGAEVKKPGASVKVSCKASGYTFTGYFMHWVPQAPGQGLEWMGWINPNSGGTNYAQNFQGRVTMTRDTSISTAYMELSRLRSDDTPVYYCARDPWQNWNSYFDYWGQGTLVTVSS
VL: DIQMTQSPSSLSASVGDRVTITCRASQSIRSYLNWYQQKPGKAPKVLIYAASSLQSGVPSRFSGSGSGTDFTLTISSLQPEDFATYYCQQSYSTLCSFGQGTKLEIKR
notes: Human hybridoma IgG (XenoMouse); also called x6.3
B2: human Angiopoietin-1 (ligand)
chain: SNQRRSPENSGRRYNRIQHGQCAYTFILPEHDGNCRESTTDQYNTNALQRDAPHVEPDFSSQKLQHLEHVMENYTQWLQKLENYIVENMKSEMAQIQQNAVQNHTATMLEIGTSLLSQTAEQTRKLTDVETQVLNQTSRLEIQLLENSLSTYKLEKQLLQQTNEILKIHEKNSLLEHKILEMEGKHKEELDTLKEEKENLQGLVTRQTYIIQELEKQLNRATTNNSVLQKQQLELMDTVHNLVNLCTKEVLLKGGKREEEKPFRDCADVYQAGFNKSGIYTIYINNMPEPKKVFCNMDVNGGGWTVIQHREDGSLDFQRGWKEYKMGFGNPSGEYWLGNEFIFAITSQRQYMLRIELMDWEGNRAYSQYDRFHIGNEKQNYRLYLKGHTGTAGKQSSLILHGADFSTKDADNDNCMCKCALMLTGGWWFDACGPSNLNGMFYTAGQNHGKLNGIKWHYFKGPSYSLRSTTMMIRPLDF
notes: Bought recombinant protein (R&D Systems 293-AN-025/CF) or supernatant of transfected 293F cells; also called Ang-1; recombinant Ang-1
B3: mAb 5.41.1 (antibody, V domains shown)
VH: EVQLVESGGGLVQPGGSLRLSCAASGFTFSSYWMSWVRQAPGKGLEWVANIKEDGSEKYYVDSVKGRFTISRDNAKNSLYLQMNSLRAEDTAVFYCARDRSSGFFDYWGQGTLVTVSS
VL: EIVMTQSPATLSVSPGERATLSCRASQSVSSNLAWYQQKPGQAPRFLIYGASTRATGIPARFSGSGSGTEFTLTISSLQSEDFAVYYCQQYNHWWTFGQGTKVEIKR
notes: Human hybridoma IgG (XenoMouse); also called x5.41
B4: mAb 5.16.3 (antibody, V domains shown)
VH: QVQLVQSGAEVKKPGASVKVSCKASGYTFTGFYMYWVRQAPGQGLEWMGWINPNSSGTNHAQKFQGRVTMTRDTSISTAYMELSRLRSDDTAVYYCARDQDIATAGPFDYWGQGTLVTVSS
VL: B3 VL with F46L, Y49F, H93N, Q99R
notes: Human hybridoma IgG (XenoMouse); also called x5.16

One assay deals with T1, human Ang-2443. Nature of the assay: ELISA.
A further assay has as its target T2, human Ang-2 V345M. Nature of the assay: ELISA. Background: An ELISA detects its analyte on a solid surface through an enzyme-linked reagent.
For the next assay, the target named is T3, human Ang-2 H375Q. Nature of the assay: ELISA.
Assay [1] deals with T4, Human Ang-1/2 BsmI chimeric molecule. Nature of the assay: ELISA.
The target of the assay “human Angiopoietin-1” is B2. Nature of the assay: capture ELISA. On the procedure:
The binding of the top 27 human monoclonal antibodies was detected with a HRP-conjugated goat anti-human antibody, followed by colorimetric horseradish peroxidase substrate (Enhanced K-Blue TMB substrate Neogen Corporation). The absorbance of each well of the ELISA plates was measured at 450 nm on a microplate autoreader.

Assay [2] has as its target T5, human Angiopoietin-2. Nature of the assay: Biacore, mAb captured. On the procedure:
(§1) The label-free surface plasmon resonance (SPR), or Biacore, was utilized to measure the antibody affinity to the antigen. For this purpose, a high-density goat anti-human antibody surface over a CM5 Biacore chip was prepared using routine amine coupling. All the purified mAbs were diluted to approximately 8 μg/ml in HBS-P running buffer containing 100 μg/ml BSA and 10 mg/mL carboxymethyldextran. Each mAb was captured on a separate surface using a 42-second contact time, and a 5-minute wash for stabilization of the mAb baseline.
(§2) Data were fit globally to a 1:1 interaction model to determine the binding kinetics.
In general terms: In SPR one partner is held on a chip, and binding of the other changes the refractive index at the surface.

Assay [3] deals with T5, human Angiopoietin-2. Nature of the assay: Biacore; kd held constant (*). On the procedure: as §1, §2
Assay [4] addresses T5, human Angiopoietin-2. Nature of the assay: inhibition of rhAng-2 binding to its receptor.
Assay [5] deals with T7, recombinant human Tie2/Fc fusion protein (human, UniProt Q02763 23-745).
T7 construct: Bought fusion protein; also called hTie2/Fc; soluble Tie2/Fc
T7 sequence (Q02763 23-745 limits assumed): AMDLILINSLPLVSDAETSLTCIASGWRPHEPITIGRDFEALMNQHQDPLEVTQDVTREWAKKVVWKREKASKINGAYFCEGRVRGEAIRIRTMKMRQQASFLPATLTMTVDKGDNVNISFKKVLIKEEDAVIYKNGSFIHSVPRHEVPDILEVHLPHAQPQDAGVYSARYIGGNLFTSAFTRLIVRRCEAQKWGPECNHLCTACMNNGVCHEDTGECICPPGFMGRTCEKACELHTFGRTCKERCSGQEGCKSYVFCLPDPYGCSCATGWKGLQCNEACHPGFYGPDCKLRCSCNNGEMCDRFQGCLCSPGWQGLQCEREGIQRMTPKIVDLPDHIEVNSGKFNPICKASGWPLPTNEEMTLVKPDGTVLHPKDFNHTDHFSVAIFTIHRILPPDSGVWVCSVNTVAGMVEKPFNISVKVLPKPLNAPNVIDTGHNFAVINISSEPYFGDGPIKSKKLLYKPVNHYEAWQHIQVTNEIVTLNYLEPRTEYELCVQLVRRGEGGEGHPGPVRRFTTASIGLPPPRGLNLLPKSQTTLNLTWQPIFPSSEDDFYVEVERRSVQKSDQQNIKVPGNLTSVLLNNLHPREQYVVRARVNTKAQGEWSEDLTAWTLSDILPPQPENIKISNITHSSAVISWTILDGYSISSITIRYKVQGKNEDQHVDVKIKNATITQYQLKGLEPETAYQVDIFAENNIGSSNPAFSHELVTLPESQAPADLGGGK
Nature of the assay: FACS competition: binding of His-tagged recombinant human Ang-1 to Tie2 on HEK293F/Tie2 transfectants, soluble Tie2/Fc titrated, n = 3. On the procedure: Cell suspension of 4 million cells/mL in FACS Buffer were prepared, and then aliquoted to a 96-well polypropylene plate with 50 ul per well. […] Cells were washed by centrifuging the plate at 1,200 rpm for 5 minutes, removing the supernatant by aspirating, and resuspending the cells with 200 ul per well of FACS Buffer. Washing procedures were repeated twice. The cells were then suspended with 100 ul of mouse Anti-6×-Histidine antibody diluted to 2 ug/ml in FACS Buffer, and incubated at room temperature for 30 minutes. After washing, the cells were suspended in 100 ul of PE-conjugated goat anti-mouse-IgG, which was diluted 1:100 in FACS Buffer, for incubation at room temperature for 30 minutes. The volume of the samples were brought to 300 ul with FACS Buffer, and measured with FACS Calibur.

A further assay deals with T6, mouse Angiopoietin-2. Nature of the assay: ELISA, recombinant mouse Ang-2.

Changes are numbered by the printed parent chain.

In general, Kd refers to the concentration at which binding is half-saturated. A low value points to tighter binding. In general, kon refers to the second-order rate constant of association. For orientation: koff means the rate constant with which the complex falls apart. A high value points to a short-lived complex.

Turning to B1, the “% of binding to human Ang-2” value (with human Ang-2443; in the assay with human Ang-2 V345M; with human Ang-2 H375Q; in assay [1]) was 100% in each case. Besides, the binding result with human Angiopoietin-1 is on record as “no binding”. The same molecule came in with a Kd with human Angiopoietin-2 [2] of at most 0.073 nM. In the assay with human Angiopoietin-2 [2], this molecule registered a kon of 140000 M⁻¹ s⁻¹. Besides, the koff in the assay with human Angiopoietin-2 [3] is at most 1e-05 s⁻¹. For the same molecule, the “OD650 in inhibition assay” value in the assay with human Angiopoietin-2 [4] amounted to 0.0617 OD650.
B2: the binding result in assay [5] was “binds”.
As to B3, the binding result with human Angiopoietin-1 and with mouse Angiopoietin-2 was “no binding” in each case.
B4: the binding result with human Angiopoietin-1 and with mouse Angiopoietin-2 was “no binding” in each case.

For the origin of these results see US20080267971A1 (published 2008).
